Measurements as given in patent US20200368208, “Protein Translation Inhibitors and Uses Thereof” (University of Baltimore, Maryland, published 2020).

Assays:
[1] = target: T1, hnRNP A18 (CIRP), full length, GST fusion (UniProt Q14011 Q14011:1-172); assay: FP; 25 C, 30 min; binding competed by small molecules (compound 1 IC50 6.4 uM; compounds 5, 2, 3, 4 IC50 2.9, 15, 13, 39 uM); no Kd given; details: tags: GST; label: 3' T-fluorescein (position 5 of thymine, 6-carbon spacer)
T1 sequence: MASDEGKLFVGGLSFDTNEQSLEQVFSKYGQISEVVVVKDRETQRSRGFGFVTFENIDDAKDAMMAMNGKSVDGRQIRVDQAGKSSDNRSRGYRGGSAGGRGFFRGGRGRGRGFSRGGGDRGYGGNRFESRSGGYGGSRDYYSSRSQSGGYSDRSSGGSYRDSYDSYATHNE

[2] = target: T2, hnRNP A18 (CIRP), full length, His-tagged (UniProt Q14011 Q14011:1-172); assay: EMSA; 1 ug protein in 20 ul; competed by compounds 1-6; details: tags: His; label: 3' biotin
T2 sequence: T1 sequence
Procedure: RNA band shifts were performed according to the manufacturer recommendations (LightShift Chemiluminescent RNA EMSA kit, Thermo Scientific, Rockford, Ill.). Briefly recombinant His-hnRNP A18 or His-hnRNP A1 (1 μg) were incubated with biotinylated RNA (hnRNP A18 motif 1, IRE 28 or 51 nucleotides) in 20 μl and run on native polyacrylamide gels transfer to nylon probes and hybridize with streptavidin HRP antibody.

B1: hnRNP A18 motif 1 fluorescein (ssRNA)
RNA: GCAGAUCCAGGGUGGGAUUUUCUUGAGGAAGUUACAAAUAAGCUUGUUACA
B1: binds [1].

B2: hnRNP A18 motif 1 biotin (ssRNA)
RNA: B1 RNA
B2: binds [2].
